# Measured values published in patent publication US20180030455A1.
# Biological target: vitreal Sema3A of STZ-treated diabetic mice (endogenous mouse Semaphorin3A) (mouse) (UniProt O08665)
# Assay: cell-based or functional assay
# Chain of UniProt O08665 (O08665 21-772 limits assumed): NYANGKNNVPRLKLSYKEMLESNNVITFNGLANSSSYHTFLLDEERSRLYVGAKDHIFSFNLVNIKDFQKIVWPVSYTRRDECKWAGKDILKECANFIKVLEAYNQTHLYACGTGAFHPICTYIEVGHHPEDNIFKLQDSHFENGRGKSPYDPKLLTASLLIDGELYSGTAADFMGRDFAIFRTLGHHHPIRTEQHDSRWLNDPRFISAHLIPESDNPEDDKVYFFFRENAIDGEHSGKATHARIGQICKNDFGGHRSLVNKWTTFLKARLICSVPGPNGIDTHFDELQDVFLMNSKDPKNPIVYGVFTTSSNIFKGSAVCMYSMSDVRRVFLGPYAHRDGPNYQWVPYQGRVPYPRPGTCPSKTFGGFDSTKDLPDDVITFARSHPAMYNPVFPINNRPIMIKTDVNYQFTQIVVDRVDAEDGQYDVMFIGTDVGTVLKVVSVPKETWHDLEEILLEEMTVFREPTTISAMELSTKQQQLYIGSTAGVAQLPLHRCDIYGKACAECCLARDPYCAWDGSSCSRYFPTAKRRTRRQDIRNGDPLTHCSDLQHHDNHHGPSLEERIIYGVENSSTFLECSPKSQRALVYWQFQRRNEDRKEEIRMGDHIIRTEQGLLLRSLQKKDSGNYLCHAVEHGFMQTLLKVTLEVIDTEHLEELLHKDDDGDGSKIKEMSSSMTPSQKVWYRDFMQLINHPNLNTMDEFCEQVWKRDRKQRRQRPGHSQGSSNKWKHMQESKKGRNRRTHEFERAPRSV
substance,measurement,value
recombinant mouse soluble Neuropilin-1 (rmNRP1) (from UniProt P97333 22-856) (receptor),"reduction in retinal permeability (Evans Blue permeation) at week 8 of diabetes, after intravitreal injection of rNrp-1 in STZ mice at weeks 6 and 7",48.1%
